# Key:
# Type in all cases: biochemical
# [1] = Luminescence at 1 mM CS0333 (Table 11); conditions: 1 mM substrate, 1 mM ATP
# Text: (§1) Tables 10 and 11 include representative results of kinetic analysis of the thermostable variants with D/L luciferin, CS0333, and CS0280. […] MK0135 and MK0137 have amino acid substitutions that improve thermostability relative to MK0133 and MK0134, respectively, while retaining activity on the luciferin analogs CS0333 and CS0280.
# [2] = Luminescence at 1 mM CS0280 (Table 11); conditions: 1 mM substrate, 1 mM ATP
# Text: as §1
# [3] = Kinetic analysis of thermostable variants with CS0333 (Tables 13, 14); conditions: 2 mM ATP
# Text: (§2) Tables 13 and 14 include representative results of kinetic analysis of the thermostable variants with D/L luciferin, CS0333, and CS0280. The panel of enzyme variants highlight amino acid substitutions that further improve upon MK0137 in maximum luminescence (Vmax) or Km in different buffers with the different substrates tested (D/L-luciferin, CS0333, and CS0280). In particular, enzyme variants MK0151 and MK153 show improvements relative to MK0137 across multiple buffers with multiple substrates.
# [4] = Luminescence at 1 mM D/L-luciferin (Table 11); conditions: 1 mM substrate, 1 mM ATP
# Text: as §1
# [5] = Kinetic analysis of thermostable variants with D/L-luciferin (Tables 13, 14); conditions: 2 mM ATP
# Text: as §2
# [6] = Kinetic analysis of thermostable variants with CS0280 (Tables 13, 14); conditions: 2 mM ATP
# Text: as §2
Molecule,Vmax (RLU) CS0333 BrightGlo Buffer [1],Vmax (RLU) CS0333 Detection Reagent Buffer [1],Vmax (RLU) CS0280 BrightGlo Buffer [2],Vmax (RLU) CS0280 Detection Reagent Buffer [2],Km ([3]; BrightGlo Buffer),Vmax (RLU) ([3]; BrightGlo Buffer),Km ([3]; Detection Reagent Buffer),Vmax (RLU) ([3]; Detection Reagent Buffer),Vmax (RLU) D/L-luciferin BrightGlo Buffer [4],Vmax (RLU) D/L-luciferin Detection Reagent Buffer [4],Km ([5]; BrightGlo Buffer),Vmax (RLU) ([5]; BrightGlo Buffer),Km ([5]; Detection Reagent Buffer),Vmax (RLU) ([5]; Detection Reagent Buffer),Km ([6]; BrightGlo Buffer),Vmax (RLU) ([6]; BrightGlo Buffer),Km ([6]; Detection Reagent Buffer),Vmax (RLU) ([6]; Detection Reagent Buffer)
MK0151: SEQ ID NO: 116; H244W+S193A+N228D+L305F+S306P+I109V+C38R+F55I+Y108F+A316W+Y339M+T342S+V348I+S313T+D435G+L437R (protein) MADKNILYGPEPFYPLEDGTAGEQMFDALSRYAAIPGRIALTNAHTKENVLYEEILKLSCRLAESFKKYGLKQNDTIAVCSENSLQFFLPVIASLYLGIIVAPVNDKFVERELIHSLGIVKPRIVFCSKNTFQKVLNVKSKLKSIETIIILDLNEDLGGYQCLNNFISQNSDSNLDVKKFKPYSFNRDDQVAAIMFSSGTTGLPKGVMLTHKNIVARFSIAKDPTFGDAINPTSAILTVIPFHWGFGMMTTLGYFTRGFRVVLMHTFEEKLFLQSLQDYKVESTLLVPTLMAFLAKSALVEKYDFPHLKEIASGGWPLSKEIGEMVKKRFKLNFVRQGMGLSETTSAILITPRGDAKPGSTGKIVPLHAVKVVDPTTGKILGPNEPGELYFKGPMIMKGYYNNEEATKAIIDNDGWLRSGDIAYYDNDGHFYIVDRRKSLIKYKGYQVAPAEIEGILLQHPYIVDAGVTGIPDEAAGELPAAGVVVQTGKYLNEQIVQDYVASQVSTAKRLRGGVKFLDEIPKGSTGKIDRKVLRQMLEKHTNGHHHHHHHH,"8,608,150 RLU","4,805,980 RLU","1,490,130 RLU","76,615 RLU",6.45 µM,"4,586,290 RLU",37.6 µM,"727,712 RLU","1,074,780 RLU","249,347 RLU",0.0834 µM,"924,955 RLU",0.265 µM,"123,752 RLU",4.88 µM,"534,004 RLU",632 µM,"58,187 RLU"
MK0152: SEQ ID NO: 117; H244W+S193A+N228D+L305F+S306P+I109V+C38R+F55I+Y108F+A316W+Y339M+T342S+V348I+C257R+K353R+L437R+W510R (protein) MADKNILYGPEPFYPLEDGTAGEQMFDALSRYAAIPGRIALTNAHTKENVLYEEILKLSCRLAESFKKYGLKQNDTIAVCSENSLQFFLPVIASLYLGIIVAPVNDKFVERELIHSLGIVKPRIVFCSKNTFQKVLNVKSKLKSIETIIILDLNEDLGGYQCLNNFISQNSDSNLDVKKFKPYSFNRDDQVAAIMFSSGTTGLPKGVMLTHKNIVARFSIAKDPTFGDAINPTSAILTVIPFHWGFGMMTTLGYFTCGFRVVLMHTFEEKLFLQSLQDYKVESTLLVPSLMAFLAKSALVEKYDFPHLKEIASGGWPLSKEIGEMVKKRFKLNFVRQGMGLSETTSAILITPRGDAKPGSTGKIVPLHAVKVVDPTTGKILGPNEPGELYFKGPMIMKGYYNNEEATKAIIDNDGWLRSGDIAYYDNDGHFYIVGRLKSLIKYKGYQVAPAEIEGILLQHPYIVDAGVTGIPDEAAGELPAAGVVVQTGKYLNEQIVQDYVASQVSTAKRLRGGVKFLDEIPKGSTGKIDRKVLRQMLEKHTNGHHHHHHHH,"405,859 RLU","175,261 RLU","484,293 RLU","11,418 RLU",4.09 µM,"519,457 RLU",56.8 µM,"49,798 RLU","954,983 RLU","103,199 RLU",0.0583 µM,"1,055,203 RLU",0.395 µM,"60,231 RLU",5.74 µM,"330,383 RLU",848 µM,"10,047 RLU"
MK0153: SEQ ID NO: 118; H244W+S193A+N228D+L305F+S306P+I109V+C38R+F55I+Y108F+A316W+Y339M+T342S+V348I+T289S+K353R+D435G+W510R (protein) MADKNILYGPEPFYPLEDGTAGEQMFDALSRYAAIPGRIALTNAHTKENVLYEEILKLSCRLAESFKKYGLKQNDTIAVCSENSLQFFLPVIASLYLGIIVAPVNDKFVERELIHSLGIVKPRIVFCSKNTFQKVLNVKSKLKSIETIIILDLNEDLGGYQCLNNFISQNSDSNLDVKKFKPYSFNRDDQVAAIMFSSGTTGLPKGVMLTHKNIVARFSIAKDPTFGDAINPTSAILTVIPFHWGFGMMTTLGYFTRGFRVVLMHTFEEKLFLQSLQDYKVESTLLVPSLMAFLAKSALVEKYDFPHLKEIATGGWPLSKEIGEMVKKRFKLNFVRQGMGLSETTSAILITPRGDAKPGSTGKIVPLHAVKVVDPTTGKILGPNEPGELYFKGPMIMKGYYNNEEATKAIIDNDGWLRSGDIAYYDNDGHFYIVDRLKSLIKYKGYQVAPAEIEGILLQHPYIVDAGVTGIPDEAAGELPAAGVVVQTGKYLNEQIVQDYVASQVSTAKWLRGGVKFLDEIPKGSTGKIDRKVLRQMLEKHTNGHHHHHHHH,"3,768,010 RLU","2,570,070 RLU","1,803,730 RLU","90,671 RLU",6.66 µM,"4,114,986 RLU",22 µM,"822,270 RLU","509,406 RLU","78,859 RLU",0.176 µM,"1,081,804 RLU",0.435 µM,"75,581 RLU",7.71 µM,"1,098,792 RLU",474 µM,"88,269 RLU"
MK0155: SEQ ID NO: 120; H244W+S193A+N228D+L305F+S306P+I109V+C38R+F55I+Y108F+A316W+Y339M+T342S+V348I+T284A+S313T+K353R+L437R+W510R (protein) MADKNILYGPEPFYPLEDGTAGEQMFDALSRYAAIPGRIALTNAHTKENVLYEEILKLSCRLAESFKKYGLKQNDTIAVCSENSLQFFLPVIASLYLGIIVAPVNDKFVERELIHSLGIVKPRIVFCSKNTFQKVLNVKSKLKSIETIIILDLNEDLGGYQCLNNFISQNSDSNLDVKKFKPYSFNRDDQVAAIMFSSGTTGLPKGVMLTHKNIVARFSIAKDPTFGDAINPTSAILTVIPFHWGFGMMTTLGYFTCGFRVVLMHTFEEKLFLQSLQDYKVESALLVPTLMAFLAKSALVEKYDFPHLKEIATGGWPLSKEIGEMVKKRFKLNFVRQGMGLSETTSAILITPRGDAKPGSTGKIVPLHAVKVVDPTTGKILGPNEPGELYFKGPMIMKGYYNNEEATKAIIDNDGWLRSGDIAYYDNDGHFYIVDRRKSLIKYKGYQVAPAEIEGILLQHPYIVDAGVTGIPDEAAGELPAAGVVVQTGKYLNEQIVQDYVASQVSTAKRLRGGVKFLDEIPKGSTGKIDRKVLRQMLEKHTNGHHHHHHHH,"3,609,390 RLU","1,400,780 RLU","4,644,970 RLU","62,606 RLU",7.88 µM,"1,487,388 RLU",126 µM,"301,956 RLU","851,342 RLU","74,704 RLU",0.0804 µM,"550,291 RLU",0.527 µM,"22,671 RLU",8.07 µM,"570,972 RLU",798 µM,"32,480 RLU"
MK0154: SEQ ID NO: 119; H244W+S193A+N228D+L305F+S306P+I109V+C38R+F55I+Y108F+A316W+Y339M+T342S+V348I+C257R+T284A+T289S+S313T+K353R+D435G+L437R+W510R (protein) MADKNILYGPEPFYPLEDGTAGEQMFDALSRYAAIPGRIALTNAHTKENVLYEEILKLSCRLAESFKKYGLKQNDTIAVCSENSLQFFLPVIASLYLGIIVAPVNDKFVERELIHSLGIVKPRIVFCSKNTFQKVLNVKSKLKSIETIIILDLNEDLGGYQCLNNFISQNSDSNLDVKKFKPYSFNRDDQVAAIMFSSGTTGLPKGVMLTHKNIVARFSIAKDPTFGDAINPTSAILTVIPFHWGFGMMTTLGYFTCGFRVVLMHTFEEKLFLQSLQDYKVESALLVPSLMAFLAKSALVEKYDFPHLKEIATGGWPLSKEIGEMVKKRFKLNFVRQGMGLSETTSAILITPKGDAKPGSTGKIVPLHAVKVVDPTTGKILGPNEPGELYFKGPMIMKGYYNNEEATKAIIDNDGWLRSGDIAYYDNDGHFYIVDRLKSLIKYKGYQVAPAEIEGILLQHPYIVDAGVTGIPDEAAGELPAAGVVVQTGKYLNEQIVQDYVASQVSTAKRLRGGVKFLDEIPKGSTGKIDRKVLRQMLEKHTNGHHHHHHHH,"2,374,950 RLU","854,223 RLU","809,566 RLU","22,493 RLU",10.6 µM,"1,706,369 RLU",230 µM,"409,320 RLU","2,583,340 RLU",,0.108 µM,"2,997,269 RLU",0.356 µM,"342,134 RLU",41.7 µM,"449,576 RLU",954 µM,"24,533 RLU"
